# Data published in the nanobody polyreactivity screen of Harvey et al. (2022).
# Test: yeast display, Sf9 membrane polyspecificity reagent, FACS + sequencing; frameworks hold sequencing errors
# Procedure, shortened: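 Sorting gates, low and high (top ~1%), were placed on anti-HA fluorescence to track expression and on streptavidin fluorescence to track reagent binding. A clone's polyreactivity label is taken from the gate it came out of. The reagent was 10% biotinylated, detergent-solubilized Sf9 membrane, applied for 1 hour at 4 °C to galactose-induced yeast display cells.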
row,Sequence,polyreactivity (PSR sort gate)
1,QVQHVDSRGGLVQAGGSLRLSCAASGSIVPWNDMGWYRQAPGKERQLVAAITYRGGRTYYADSVKGRFTISRDNAKNTVYLQMNSLKPEDTAVYYCATKSRRNSPRMDYWGQGTQVTVSS,high polyreactivity
2,QVQHVESAAGLVQAGCSLRLSGAASGRIFRGYAMGWSRPAHGNEWELVAGITWGGGSTYYADSVKGRFTISRDKAKNTVYLQMNSLKPEDTAVYYCNAVRPRQWWTHFGYWGQGTQVTVSS,high polyreactivity
3,QVQHVESAAGLVQAGGSLRLSCAASGRIFYATVMGWYRQAHGKVREFVAAIRWSGSTYYADSVKGRFTISRDNAKNTVYLQMNSLKRVDTAVYYCADEGSRWYYFFYVGGGYWGQGTQVTVSS,low polyreactivity
4,QVQHVESAGALVQAGGSLRLSCAASRRTFYRYPMGWYRQAPGKERELVAAISSNGGSTYYADSVKGRFTISRDNGKNTVYLQMNSLKPEDTAVYYCYYYNSRLFDYWGQGTQVTVSS,high polyreactivity
5,QVQHVESAGGLVQAGGSLRLSCAASGRTFSRYAMGWYRQAPGKERELVATITRGGSTNYADSVKGRFTISRDNAKNRVYLQMNSQKPEDTSVYYFIAGCFRYQGTLNHFYYWGQGTQVTVSS,low polyreactivity
6,QVQHVESARGLVPAGGSLRLSCAASGFTVIRYAMGRYRQAPGKERELVAAIRGTGTSTYYADSVKGRFTISRDIAKNTVYLQLNSLKPEDTAVYYCNKVAGRSPYTRYDYWGQGTQVTVSS,low polyreactivity
7,QVQHVESGAGIVQAGGSLRLSCAASGSTFKRYAMGWYRQAPGKERELVAAITWRGGSTYYADSVKGRFTISRDNAKNTVYLLMNSLKPDDTAVYYCASDYVYRYDYWGQGTQVTVSS,high polyreactivity
8,QVQHVESGAGLVQAGGSLLLSCAASGRIFQKYPMGWYRQSPGKERELVAAISRGGSTYYADSVKGRFTISRDNAKNTVYLQMISLNPEDTAVYFCASTSYRRTGYNYWGQGTQVTVSS,high polyreactivity
9,QVQHVESGAGLVQAGGSLRLSCAASGNTFTWYTRGWSRQAPGKERELVAVITSDGATYYADSVKGRFTISRDNAKNTVYLQMNSLKPEDTAVYYCNALSAEWYPEEDYWGQGTQVTVSS,low polyreactivity
10,QVQHVESGAGLVQAGGSLRLSCAASGSTFFRANAMGLDRQEPGKERELVAAITGSGGRTYYADSVKGRFTISRDNAKNTVYLQMNSLKPEDTAVYYCATHGVSRPYDYWGPGTQVTVSS,high polyreactivity
11,QVQHVESGGALVQAGGSLRLSCAASGFTFTRNTMGWYRQAPGKERELVAAITRGGSTNYADSVKGRFTISRDNAKNTVYLQMNSLKPEDTAVYYCNKGRNVVLVRTADDYWGQGTQVTVSS,low polyreactivity
12,QVQHVESGGGIVQAGGSLRLSCAASGLTFVYYAMGWYRQAPGTERELVAAISSGGRTYYADSVKGRFTISRDNAKKTVYLQMNSLKPDDTAVYYCAAYGGTHYTYRYDYWGQGTQVTVSS,high polyreactivity
13,QVQHVESGGGIVQAGGSLRLSCAASGSIFDRNAMGWYRPAPGQERELVASISWDGGNTYYADSVKGRFTISRDNSTNTVYLQMNSLKPEDTAVYYCAVDLYIWYDGYEYYYWGQGTQVTVSS,high polyreactivity
14,QVQHVESGGGLDQAGGSLPLSCASSGSTFAYYAMGWYRQAPGKERELVASITWSGGITYYADSVKGRFTISRDNAKNTVYLQMNSLKPEETAVYYCNVVPYYGYYYWGQGSQVTVSS,low polyreactivity
15,QVQHVESGGGLFQAGGSLRLSCAASGTTFRYYAMGWYRQAPVKERELVAYITTSGGTYYADSVKGRFTISRDNAKNTVYLQMNSLKPEDTAVDYCAARRQDYTYYRIYNFDYWGQGTQVTVSS,high polyreactivity
16,QVQHVESGGGLGQAGGSLRLSCAASGSTFRSYAMGWYRQAPGKERELVAVISSGDSTYYADSLKGSFKISRDNAKNTVYLQMNSLKPDDTAVYYCAADSYFLVRWYGYWGQGTQVTVSS,low polyreactivity
17,QVQHVESGGGLGQAVGSLRLSCAASGFTFARNAMGWDRQAPGQERELVAAISSSGAGTYYADSVKGRFTISRDNSKNTVYLQMNSLKPEDTAVYYCAAYSWKGYDYWGQGTQVTVSS,high polyreactivity
18,QVQHVESGGGLLQAGGSLRLSCPASGRTFTVYALGWYRQAPGKDRELVAAFSRSGGRTYYADSVKGRFTISRDNAKNTVYLQRNSLKPEDTAVYYCAADDPYRTNDFDYWGQGTQVTVSS,high polyreactivity
19,QVQHVESGGGLVQAGCSLRLSCAASGRIFRLYAMGWYRQARGKERELVAAISSRGGDTYADSVKGRFTISRDNAKNTVYLQMNSLKPEDTAVYYCNAVIYYPYKYGVWYYEYDYWGQGTQVTVSS,low polyreactivity
20,QVQHVESGGGLVQAGGCLRVSCAASGRTFIYYAMGGYRPAPGKERELVAAITNRGGSTYYADSVKGRFTISRDNAQNTVYLLMNSLNPEDTAVYYCAARGKYPSASAYTYSYGYWGQGTQVTVSS,high polyreactivity
21,QVQHVESGGGLVQAGGRLRLRCAASGSIFGTYAMGWYRQAPGKERELVARISGGGSTYYADSVKGRFTISRDNAKNTVYLQMNSLKPEDTAVYYCNVRKWAYWSHAIIYNYWGQGTQVTVSS,high polyreactivity
22,QVQHVESGGGLVQAGGSHPLSCAASGRIFQYNALGWYRKATGKERELLAAISLSGVRTYYADSVKGRFTISRDNAKNTVYLQMNSLKPEDTAVYYCAAVRFDRARGSPYPDRVGVYSWGQGTQVTVSS,high polyreactivity

row,Sequence,polyreactivity (PSR sort gate)
1,QVQHVESGGGLVQAGGSLPLSCAASGFIFYNYAQRCYTQPPGKERELVAAISSGDDTTYADSVKGRFTISRDNAKNTVYLQMNSLKPDDTAVYYCNTVRSVKQQGPYGYCGQGTQVTVSS,low polyreactivity
2,QVQHVESGGGLVQAGGSLRISCAASGFIFGPYAMGWSRKAPGKERELVAAISGRDGSTYYADSVKGRFTISRDNAKNSVYLHMNSLKPEDTAVYYCAAEVWTALYYSYYGYRYYWGQGTQVTLSS,high polyreactivity
3,QVQHVESGGGLVQAGGSLRISCAASGSIFYYNAMGWYRQAPGKERELVAAISWGDGITYYADSVKGRFTISRDNAKNTVYLQMNSLKPEDTAVYYCAVDYYYLAYEYWGQGTQVTVSS,high polyreactivity
4,QVQHVESGGGLVQAGGSLRISCAASGSTFPRYGKGRYRQAPGKERELVAAISSGGGRTYYADSVKGRFTISRDNAKNTVYVQMNSLKPEDTAVYYCNKRPSHWRHYIMDYWGQGTQVTVSS,high polyreactivity
5,QVQHVESGGGLVQAGGSLRLSCAASAIIFGDYAMGWYRQAPGKETELVAAINLDGTSTYYADSVKGRFTISRDIAKHSVYLQINSLKTEDTAGFYCAAVPDKYCCRVRRYLFEHNYWGQGTQVTVSS,low polyreactivity
6,QVQHVESGGGLVQAGGSLRLSCAASGFIFASYAMGWSRQPPGKERELVAAISWRGGSTYYADSVKGRFTISRDNAKNTLYLQMNSLKPVDTAVYYCNAYVYVCTGRGYDTLDYWGQGTQVTVSS,low polyreactivity
7,QVQHVESGGGLVQAGGSLRLSCAASGFIFGRYTMGWYRQAPGKERELVAAISRGGITNYADSVKGRFTISRDNAKNTVYLQMNSLKPEDTAVYYCNAVGVRPGFKGFDYWGQGTQVTVSS,high polyreactivity
8,QVQHVESGGGLVQAGGSLRLSCAASGFIFPYYDMGWYRQAPGKEREFVAAITKSGGRTYYADSVKGRFTISRDNAKNPVYLQMNSLKPEDTAVYYCAAEPDTYWYTYDYWGQGTQVTVSS,low polyreactivity
9,QVQHVESGGGLVQAGGSLRLSCAASGFIFWYYAMGWYRKAPGKERELVAAISSRGGSTYYADSVKGRFTISRDNAKNTVYLQLNSLKPEDTAGYYCATPSKALPPHGRAILDYWGQGTQVTVSS,high polyreactivity
10,QVQHVESGGGLVQAGGSLRLSCAASGFILDTYGMGWYRQAPGKERELVAAISQSDVSTYYADSVKGRFTISRDNAKNTVDLQMNSLKPEDTAVYDCAADRGGLRWFWQVLYDYWGQGTQVTVSS,low polyreactivity
11,QVQHVESGGGLVQAGGSLRLSCAASGFILPWYVMGWYRQAPGKERELVAAISGTGGSTYYADSVKGRFTISRDNAKNTVYLQMNSLKPEDTAVYYCAAGAFYAGYYWEFYYWGQGTQVTVSS,high polyreactivity
12,QVQHVESGGGLVQAGGSLRLSCAASGFTFYRYTMGWYRQAPGKERELVAAISRGGRTYYADSVKGRFTISRDNAKNTVYLQMNSLKPEDTAVYYCAARTWIARRGRYNYWGQGTQVTVSS,high polyreactivity
13,QVQHVESGGGLVQAGGSLRLSCAASGFTSWKYAMGWYRQAPGKERELVAAISQSGGRTYADSVKGRFTISRDNAKNTVYLQMNSLKPEDTAVYYCAARYPRRSQKYQYWGQGTQVTVSS,high polyreactivity
14,QVQHVESGGGLVQAGGSLRLSCAASGFTYRRYAMGWYRQSPGKERELVAAISYRGGTYYADSVKGRFTISRDKAKNTLYLQMTSLIPEDTAVYYCNARYRGKYSSYGYWGQGTQVTVSS,high polyreactivity
15,QVQHVESGGGLVQAGGSLRLSCAASGGIFHGYAMGWYRQAPGKERELVAAISRGGSTNYADSVKGRFTISRDNAKNTVYLQMNSLKPQDTAVYYCAARTRWFKGYDYWGQGTQVTVSS,high polyreactivity
16,QVQHVESGGGLVQAGGSLRLSCAASGGTFSYNTMGWSRQAPGKERELVAVITFSGGSTYYADSVKGRFTISRDNAKNTVYLQMNSLKPEDTAVYYCNARSYPRWLRYDYWGQGTQVTVSS,low polyreactivity
17,QVQHVESGGGLVQAGGSLRLSCAASGIIFHSYAMGWYRQAPGKERELVAAISKNVVSTYYADSVKGRFTISRDNAKNTVYLQMNSLKPEDTAVYYCATLKPYRARQRDYWGQGTQVTVSS,high polyreactivity
18,QVQHVESGGGLVQAGGSLRLSCAASGITFFFNAIGWYRQATGKQRQLVAAITSRGGRTYYADSVKGRFTISRDNAKYTVYLQMNSLKPEDTAVYYCAATKKTGYYRYYYWGQGTQVTVSS,high polyreactivity
19,QVQHVESGGGLVQAGGSLRLSCAASGITFGDNDMGWYRQAPGKERELVASISSGGSTTYADSVKGRFTISRDNAKNTVYLQMNSLKPEDTAVYYCNADYGSSVEYNYWGQGTKVTVSS,low polyreactivity
20,QVQHVESGGGLVQAGGSLRLSCAASGLIFSWYAKGWYRQAPGKERELDASITIGGNTNYAYSVKGRFTISRDNAKNTVYLQMNSLKPEDTAVYYCDAQTFWYGYGGGDYWGQGTQVTVSS,low polyreactivity
21,QVQHVESGGGLVQAGGSLRLSCAASGLIFTKNAMGWCRQARGKEWELVAAISRGGGTPYYADSVKGRFTISRDHAKNTVYLQMNSLKPEDTAVYYCAAESYLQYPGAGDSWGQGTQVTVSS,high polyreactivity
